Tested on: Bacillus subtilis
Experiment: cleaved RNA product abundance (RNA/gDNA barcode ratio) relative to median wild-type variant (ratio to wild type); higher = more accumulation of the downstream cleavage product
Details: experiment (reporter, strain, medium): exp 8a: truncated aprE reporter, strain BJT201 with 2% xylose (RNase J1 expressed); cleavage site: glnRA (positions -5 to +31 mutated)
Outline: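 The B. subtilis chromosome carried reporter mRNAs, truncated aprE or tetM, containing barcoded RNase Y cleavage-site windows mutagenized using oligos with a 9% error rate. After growth in LB at 37°C from OD600 0.0003 to 0.3, cleaved RNA was gel-selected, reverse transcribed and barcode-sequenced next to genomic DNA barcodes, with UMI collapsing. Each construct's RNA:gDNA barcode ratio was scaled to the median construct with the unmutated site. That scaled ratio is reported as cleaved product abundance.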

| Sequence | cleaved RNA product abundance |
| --- | --- |
| CGACATGTCCCGCTTCTTTCATTAATCCGTTATCAACTGTATTGCTATATACATTTACCTTTTAAGAGGAGGAAT | 0.306 |
| CGACATGTCCCGCTTCTTTCATTAATCCGTTATCAACTGTGTTGCTATATACATTTACCTTTTAAGAGGAGGAAT | 0.27 |
| CGACATGTCCCGCTTCTTTCATTAATCCGTTATCAACTGTTATGCTATATACATTTACCTTTTAAGAGGAGGAAT | 0.24 |
| CGACATGTCCCGCTTCTTTCATTAATCCGTTATCAACTGTTCTGCTATATACATTTACCTTTTAAGAGGAGGAAT | 0.213 |
| CGACATGTCCCGCTTCTTTCATTAATCCGTTATCAACTGTTTAGCTATATACATTTACCTTTTAAGAGGAGGAAT | 0.243 |
| CGACATGTCCCGCTTCTTTCATTAATCCGTTATCAACTGTTTCGCTATATACATTTACCTTTTAAGAGGAGGAAT | 0.192 |
| CGACATGTCCCGCTTCTTTCATTAATCCGTTATCAACTGTTTGGCTATATACATTTACCTTTTAAGAGGAGGAAT | 0.231 |
| CGACATGTCCCGCTTCTTTCATTAATCCGTTATCAACTGTTTTAATATATACATTTACCTTTTAAGAGGAGGAAT | 0.415 |
| CGACATGTCCCGCTTCTTTCATTAATCCGTTATCAACTGTTTTACTATATACATTTACCTTTTAAGAGGAGGAAT | 0.335 |
| CGACATGTCCCGCTTCTTTCATTAATCCGTTATCAACTGTTTTCCTATATACATTTACCTTTTAAGAGGAGGAAT | 0.292 |
| CGACATGTCCCGCTTCTTTCATTAATCCGTTATCAACTGTTTTGATATATACATTTACCTTTTAAGAGGAGGAAT | 0.26 |
| CGACATGTCCCGCTTCTTTCATTAATCCGTTATCAACTGTTTTGCAATATACATTTACCTTTTAAGAGGAGGAAT | 0.266 |
| CGACATGTCCCGCTTCTTTCATTAATCCGTTATCAACTGTTTTGCCATATACATTTACCTTTTAAGAGGAGGAAT | 0.145 |
| CGACATGTCCCGCTTCTTTCATTAATCCGTTATCAACTGTTTTGCGATATACATTTACCTTTTAAGAGGAGGAAT | 0.168 |
| CGACATGTCCCGCTTCTTTCATTAATCCGTTATCAACTGTTTTGCTAAATACATTTACCTTTTAAGAGGAGGAAT | 0.237 |
| CGACATGTCCCGCTTCTTTCATTAATCCGTTATCAACTGTTTTGCTATAAACATTTACCTTTTAAGAGGAGGAAT | 0.182 |
| CGACATGTCCCGCTTCTTTCATTAATCCGTTATCAACTGTTTTGCTATACACATTTACCTTTTAAGAGGAGGAAT | 0.27 |
| CGACATGTCCCGCTTCTTTCATTAATCCGTTATCAACTGTTTTGCTATAGACATTTACCTTTTAAGAGGAGGAAT | 0.206 |
| CGACATGTCCCGCTTCTTTCATTAATCCGTTATCAACTGTTTTGCTATATAAATTTACCTTTTAAGAGGAGGAAT | 0.243 |
| CGACATGTCCCGCTTCTTTCATTAATCCGTTATCAACTGTTTTGCTATATACAATTACCTTTTAAGAGGAGGAAT | 0.276 |
| CGACATGTCCCGCTTCTTTCATTAATCCGTTATCAACTGTTTTGCTATATACAGTTACCTTTTAAGAGGAGGAAT | 0.286 |
| CGACATGTCCCGCTTCTTTCATTAATCCGTTATCAACTGTTTTGCTATATACATATACCTTTTAAGAGGAGGAAT | 0.348 |
| CGACATGTCCCGCTTCTTTCATTAATCCGTTATCAACTGTTTTGCTATATACATTAACCTTTTAAGAGGAGGAAT | 0.283 |
| CGACATGTCCCGCTTCTTTCATTAATCCGTTATCAACTGTTTTGCTATATACATTCACCTTTTAAGAGGAGGAAT | 0.214 |
| CGACATGTCCCGCTTCTTTCATTAATCCGTTATCAACTGTTTTGCTATATACATTGACCTTTTAAGAGGAGGAAT | 0.253 |

| Sequence | cleaved RNA product abundance |
| --- | --- |
| CGACATGTCCCGCTTCTTTCATTAATCCGTTATCAACTGTTTTGCTATATACATTTAACTTTTAAGAGGAGGAAT | 0.291 |
| CGACATGTCCCGCTTCTTTCATTAATCCGTTATCAACTGTTTTGCTATATACATTTACATTTTAAGAGGAGGAAT | 0.366 |
| CGACATGTCCCGCTTCTTTCATTAATCCGTTATCAACTGTTTTGCTATATACATTTACCATTTAAGAGGAGGAAT | 0.269 |
| CGACATGTCCCGCTTCTTTCATTAATCCGTTATCAACTGTTTTGCTATATACATTTACCTTTTAAGAGGAGGAAT | 0.298 |
| CGACATGTCCCGCTTCTTTCATTAATCCGTTATCAACTGTTTTGCTATATACATTTACGTTTTAAGAGGAGGAAT | 0.376 |
| CGACATGTCCCGCTTCTTTCATTAATCCGTTATCAACTGTTTTGCTATATACATTTATCTTTTAAGAGGAGGAAT | 0.347 |
| CGACATGTCCCGCTTCTTTCATTAATCCGTTATCAACTGTTTTGCTATATACATTTCCCTTTTAAGAGGAGGAAT | 0.124 |
| CGACATGTCCCGCTTCTTTCATTAATCCGTTATCAACTGTTTTGCTATATACATTTGCCTTTTAAGAGGAGGAAT | 0.223 |
| CGACATGTCCCGCTTCTTTCATTAATCCGTTATCAACTGTTTTGCTATATACATTTTCCTTTTAAGAGGAGGAAT | 0.122 |
| CGACATGTCCCGCTTCTTTCATTAATCCGTTATCAACTGTTTTGCTATATACTTTTACCTTTTAAGAGGAGGAAT | 0.295 |
| CGACATGTCCCGCTTCTTTCATTAATCCGTTATCAACTGTTTTGCTATATAGATTTACCTTTTAAGAGGAGGAAT | 0.418 |
| CGACATGTCCCGCTTCTTTCATTAATCCGTTATCAACTGTTTTGCTATATATATTTACCTTTTAAGAGGAGGAAT | 0.288 |
| CGACATGTCCCGCTTCTTTCATTAATCCGTTATCAACTGTTTTGCTATATCCATTTACCTTTTAAGAGGAGGAAT | 0.136 |
| CGACATGTCCCGCTTCTTTCATTAATCCGTTATCAACTGTTTTGCTATATGCATTTACCTTTTAAGAGGAGGAAT | 0.135 |
| CGACATGTCCCGCTTCTTTCATTAATCCGTTATCAACTGTTTTGCTATATTCATTTACCTTTTAAGAGGAGGAAT | 0.246 |
| CGACATGTCCCGCTTCTTTCATTAATCCGTTATCAACTGTTTTGCTATTTACATTTACCTTTTAAGAGGAGGAAT | 0.111 |
| CGACATGTCCCGCTTCTTTCATTAATCCGTTATCAACTGTTTTGCTGTATACATTTACCTTTTAAGAGGAGGAAT | 0.192 |
| CGACATGTCCCGCTTCTTTCATTAATCCGTTATCAACTGTTTTGCTTTATACATTTACCTTTTAAGAGGAGGAAT | 0.202 |
| CGACATGTCCCGCTTCTTTCATTAATCCGTTATCAACTGTTTTGTTATATACATTTACCTTTTAAGAGGAGGAAT | 0.272 |
| CGACATGTCCCGCTTCTTTCATTAATCCGTTATCAACTGTTTTTCTATATACATTTACCTTTTAAGAGGAGGAAT | 0.393 |
| CGACATGTCCCGCTTCTTTCATTAATCCGTTATCAACTTTTTTGCTATATACATTTACCTTTTAAGAGGAGGAAT | 0.387 |
| CGACATGTCCCGCTTCTTTCATTAATCCGTTATCAAGTGTTTTGCTATATACATTTACCTTTTAAGAGGAGGAAT | 0.202 |
| CGACATGTCCCGCTTCTTTCATTAATCCGTTATCAATTGTTTTGCTATATACATTTACCTTTTAAGAGGAGGAAT | 0.199 |
| CGACATGTCCCGCTTCTTTCATTAATCCGTTATCACCTGTTTTGCTATATACATTTACCTTTTAAGAGGAGGAAT | 0.198 |
| CGACATGTCCCGCTTCTTTCATTAATCCGTTATCATCTGTTTTGCTATATACATTTACCTTTTAAGAGGAGGAAT | 0.267 |
